This assay deals with T1, Bcl-2 (mouse, UniProt P10417 1-236).
T1 construct: Endogenous protein from wild-type mouse heart homogenate
The assay is described as follows: co-immunoprecipitation from WT mouse heart homogenate with anti-Hsp20 antibody, immunoblot with anti-Bcl-2. The text has this:
Mouse heart homogenates are immunoprecipitated with anti-Hsp20 (d) or anti-Bax antibodies (e). Proteins are separated on SDS-PAGE gels and probed with anti-Bax (d1) or anti-Hsp20 antibodies (e1). Then, membrane (d1) is stripped and re-probed with anti-Bcl-2(d2); subsequently, this membrane (d2) is re-stripped and re-probed with anti-Hsp20 (d3). Similarly, membrane (e1) is stripped and re-probed with anti-Bax antibodies (e2). […] Homogenates are obtained from pre-ischemic/reperfused (g and i) and post-ischemic/reperfused (h and j) WT and TG hearts that are subjected to occlusion of LAD artery for 30 minutes and reperfusion for 24 hours. Homogenates are extracted by use of a solubilization solution of 7 mol/L urea, 2 mol/L thiourea, 4% CHAPS, 20 mmol/L DTT, 20 mmol/L spermine, and 1 mmol/L PMSF. Extract is centrifuged (100 000 g, 1 hour, at 10° C.), and 500 μg from each preparation is separated by 2D electrophoresis, using isoelectric focusing strips (Immobiline Drystrips, 18 cm, pH 4 to 7). […]
Association of Hsp20 with Bax and Bcl-2 is studied using Dynabeads Protein G (Dynal Biotech) according to the manufacturer's instructions. […] Finally, the proteins are eluted off (using 0.1 mol/L citrate), and their identity is determined by immunoblotting.

T1 sequence (P10417 whole entry): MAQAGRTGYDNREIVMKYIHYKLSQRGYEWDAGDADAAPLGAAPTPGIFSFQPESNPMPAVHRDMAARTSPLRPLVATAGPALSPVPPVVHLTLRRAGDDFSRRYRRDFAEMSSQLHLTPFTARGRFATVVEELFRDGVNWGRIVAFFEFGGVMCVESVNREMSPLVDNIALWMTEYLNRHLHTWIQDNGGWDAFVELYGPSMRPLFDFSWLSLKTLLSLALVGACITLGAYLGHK

B1: Heat-Shock Protein Hsp20 (other, mouse, UniProt Q5EBG6 1-162, looked up)
chain: MEIPVPVQPSWLRRASAPLPGFSAPGRLFDQRFGEGLLEAELASLCPAAIAPYYLRAPSVALPTAQVSTDSGYFSVLLDVKHFLPEEISVKVVDDHVEVHARHEERPDEHGFIAREFHRRYRLPPGVDPAAVTSALSPEGVLSIQATPASAQAQLPSPPAAK
notes: Endogenous protein from wild-type mouse heart homogenate, used in co-immunoprecipitation; also called mcHsp20
With B1, the binding result is given as “no binding”.

Source of the values: patent US20130273143A1 (UNIVERSITY OF CINCINNATI, published 2013).
